Experimental data from the Human Domainome abundance scans (Beltran et al. 2025).
± gives the uncertainty stated by the source.

B1: Myocardin, residues 363 to 406; numbered along this chain, Q8IZQ8 (parent)
chain: KPGPLPPNLDDLKVSELRQQLRIRGLPVSGTKTALMDRLRPFQD

Variants of: B1
Test: abundance fitness (aPCA) (normalised: wild type 0, dead -1); higher = more abundant; growth selection in yeast, the domain comes from the species named
Conditions: Homo sapiens

Point of comparison: KPGPLPPNLDDLKVSELRQQLRIRGLPVSGTKTALMDRGRPFQD [L39G], abundance fitness -0.528 ± 0.1. Against it:
- KPGPLPPNLDDLKVSELRQQLRIRGLPVSGTKTALMDALRPFQD [R38A] — within error, -0.592 ± 0.13
- KPGPLPPNLDDLKVSELRQQLRIRGLPVSGTKTALMDLLRPFQD [R38L] — within error, -0.671 ± 0.088
- KPGPLPPNLDDLKVSELRQQLRIRGLPVSGTKTALMDPLRPFQD [R38P] — higher, -0.219 ± 0.13
- KPGPLPPNLDDLKVSELRQQLRIRGLPVSGTKTALMDHLRPFQD [R38H] — lower, -1.2 ± 0.26
- KPGPLPPNLDDLKVSELRQQLRIRGLPVSGTKTALMDWLRPFQD [R38W] — lower, -1.02 ± 0.13
- KPGPLPPNLDDLKVSELRQQLRIRGLPVSGTKTALMDTLRPFQD [R38T] — within error, -0.316 ± 0.16
- KPGPLPPNLDDLKVSELRQQLRIRGLPVSGTKTALMDNLRPFQD [R38N] — within error, -0.765 ± 0.2
- KPGPLPPNLDDLKVSELRQQLRIRGLPVSGTKTALMDRLQPFQD [R40Q] — higher, -0.042 ± 0.2
- KPGPLPPNLDDLKVSELRQQLRIRGLPVSGTKTALMDRLPPFQD [R40P] — within error, -0.346 ± 0.1
- KPGPLPPNLDDLKVSELRQQLRIRGLPVSGTKTALMDRLAPFQD [R40A] — higher, 0.092 ± 0.064
- KPGPLPPNLDDLKVSELRQQLRIRGLPVSGTKTALMDRLWPFQD [R40W] — within error, -0.731 ± 0.17
- KPGPLPPNLDDLKVSELRQQLRIRGLPVSGTKTALMDRLKPFQD [R40K] — higher, 0.194 ± 0.1
- KPGPLPPNLDDLKVSELRQQLRIRGLPVSGTKTALMDRLLPFQD [R40L] — higher, -0.284 ± 0.072
- KPGPLPPNLDDLKVSELRQQLRIRGLPVSGTKTALMDRLDPFQD [R40D] — within error, -0.614 ± 0.14
- KPGPLPPNLDDLKVSELRQQLRIRGLPVSGTKTALMDRLNPFQD [R40N] — within error, -0.698 ± 0.15
- KPGPLPPNLDDLKVSELRQQLRIRGLPVSGTKTALMDRLSPFQD [R40S] — higher, -0.107 ± 0.09
- KPGPLPPNLDDLKVSELRQQLRIRGLPVSGTKTALMDRLGPFQD [R40G] — higher, -0.294 ± 0.076
- KPGPLPPNLDDLKVSELRQQLRIRGLPVSGTKTALMDRLEPFQD [R40E] — higher, -0.152 ± 0.087
- KPGPLPPNLDDLKVSELRQQLRIRGLPVSGTKTALMDRLMPFQD [R40M] — higher, -0.25 ± 0.1
- KPGPLPPNLDDLKVSELRQQLRIRGLPVSGTKTALMDRLCPFQD [R40C] — within error, -0.499 ± 0.28
- KPGPLPPNLDDLKVSELRQQLRIRGLPVSGTKTALMDRLIPFQD [R40I] — higher, -0.205 ± 0.19
- KPGPLPPNLDDLKVSELRQQLRIRGLPVSGTKTALMDRLTPFQD [R40T] — higher, -0.12 ± 0.099
- KPGPLPPNLDDLKVSELRQQLRIRGLPVSGTKTALMDRLVPFQD [R40V] — within error, -0.376 ± 0.085
- KPGPLPPNLDDLKVSELRQQLRIRGLPVSGTKTALMDRLRPAQD [F42A] — higher, 0.067 ± 0.062
- KPGPLPPNLDDLKVSELRQQLRIRGLPVSGTKTALMDRLRPQQD [F42Q] — higher, -0.06 ± 0.093
- KPGPLPPNLDDLKVSELRQQLRIRGLPVSGTKTALMDRLRPDQD [F42D] — higher, -0.061 ± 0.18
- KPGPLPPNLDDLKVSELRQQLRIRGLPVSGTKTALMDRLRPVQD [F42V] — higher, -0.211 ± 0.074
- KPGPLPPNLDDLKVSELRQQLRIRGLPVSGTKTALMDRLRPKQD [F42K] — higher, -0.09 ± 0.14
- KPGPLPPNLDDLKVSELRQQLRIRGLPVSGTKTALMDRLRPRQD [F42R] — higher, -0.12 ± 0.07
- KPGPLPPNLDDLKVSELRQQLRIRGLPVSGTKTALMDRLRPPQD [F42P] — higher, -0.02 ± 0.086
- KPGPLPPNLDDLKVSELRQQLRIRGLPVSGTKTALMDRLRPWQD [F42W] — higher, -0.124 ± 0.065
- KPGPLPPNLDDLKVSELRQQLRIRGLPVSGTKTALMDRLRPMQD [F42M] — higher, -0.242 ± 0.1
- KPGPLPPNLDDLKVSELRQQLRIRGLPVSGTKTALMDRLRPSQD [F42S] — higher, 0.03 ± 0.092
- KPGPLPPNLDDLKVSELRQQLRIRGLPVSGTKTALMDRLRPHQD [F42H] — higher, 0.139 ± 0.12
- KPGPLPPNLDDLKVSELRQQLRIRGLPVSGTKTALMDRLRPYQD [F42Y] — higher, -0.102 ± 0.1
- KPGPLPPNLDDLKVSELRQQLRIRGLPVSGTKTALMDRLRPCQD [F42C] — higher, -0.138 ± 0.082
- KPGPLPPNLDDLKVSELRQQLRIRGLPVSGTKTALMDRLRPNQD [F42N] — within error, -0.736 ± 0.36
- KPGPLPPNLDDLKVSELRQQLRIRGLPVSGTKTALMDRLRPEQD [F42E] — higher, -0.148 ± 0.086
- KPGPLPPNLDDLKVSELRQQLRIRGLPVSGTKTALMDRLRPGQD [F42G] — higher, -0.278 ± 0.057
- KPGPLPPNLDDLKVSELRQQLRIRGLPVSGTKTALMDRLRPLQD [F42L] — higher, 0.111 ± 0.068
- KPGPLPPNLDDLKVSELRQQLRIRGLPVSGTKTALMDRVRPFQD [L39V] — within error, -0.594 ± 0.092
- KPGPLPPNLDDLKVSELRQQLRIRGLPVSGTKTALMDRPRPFQD [L39P] — within error, -0.373 ± 0.084
- KPGPLPPNLDDLKVSELRQQLRIRGLPVSGTKTALMDRQRPFQD [L39Q] — within error, -0.465 ± 0.14
- KPGPLPPNLDDLKVSELRQQLRIRGLPVSGTKTALMDRKRPFQD [L39K] — within error, -0.595 ± 0.19
- KPGPLPPNLDDLKVSELRQQLRIRGLPVSGTKTALMDRDRPFQD [L39D] — within error, -0.283 ± 0.16
- KPGPLPPNLDDLKVSELRQQLRIRGLPVSGTKTALMDRMRPFQD [L39M] — within error, -0.409 ± 0.12
- KPGPLPPNLDDLKVSELRQQLRIRGLPVSGTKTALMDRIRPFQD [L39I] — within error, -0.474 ± 0.18
- KPGPLPPNLDDLKVSELRQQLRIRGLPVSGTKTALMDRSRPFQD [L39S] — within error, -0.601 ± 0.13
- KPGPLPPNLDDLKVSELRQQLRIRGLPVSGTKTALMDRTRPFQD [L39T] — within error, -0.625 ± 0.14
- KPGPLPPNLDDLKVSELRQQLRIRGLPVSGTKTALMDRWRPFQD [L39W] — lower, -0.77 ± 0.1
- KPGPLPPNLDDLKVSELRQQLRIRGLPVSGTKTALMDRHRPFQD [L39H] — within error, -0.611 ± 0.17
- KPGPLPPNLDDLKVSELRQQLRIRGLPVSGTKTALMDRARPFQD [L39A] — within error, -0.641 ± 0.099
- KPGPLPPNLDDLKVSELRQQLRIRGLPVSGTKTALMDRFRPFQD [L39F] — within error, -0.755 ± 0.35
- KPGPLPPNLDDLKVSELRQQLRIRGLPVSGTKTALMDRYRPFQD [L39Y] — within error, -0.505 ± 0.24
- KPGPLPPNLDDLKVSELRQQLRIRGLPVSGTKTALMDRCRPFQD [L39C] — within error, -0.785 ± 0.27
- KPGPLPPNLDDLKVSELRQQLRIRGLPVSGTKTALMDRRRPFQD [L39R] — lower, -0.776 ± 0.081
- KPGPLPPNLDDLKVSELRQQLRIRGLPVSGTKTALMDRERPFQD [L39E] — within error, -0.562 ± 0.1
